Measurements taken from doi:10.1101/2024.02.14.580290 (bioRxiv, 2024).

Target: rat Gβ1 with Hexa-His-tag (in purified Gαsβ1γ2) (rat, UniProt P54311 2-340)
Experiment: cross-linking

B1: bovine Gαs short subunit (in purified Gαsβ1γ2) (natural protein)
chain: MGCLGNSKTEDQRNEEKAQREANKKIEKQLQKDKQVYRATHRLLLLGAGESGKSTIVKQMRILHVNGFNGDGEKATKVQDIKNNLKEAIETIVAAMSNLVPPVELANPENQFRVDYILSVMNVPDFDFPPEFYEHAKALWEDEGVRACYERSNEYQLIDCAQYFLDKIDVIKQDDYVPSDQDLLRCRVLTSGIFETKFQVDKVNFHMFDVGGQRDERRKWIQCFNDVTAIIFVVASSSYNMVIREDNQTNRLQEALNLFKSIWNNRWLRTISVILFLNKQDLLAEKVLAGKSKIEDYFPEFARYTTPEDATPEPGEDPRVTRAKYFIRDEFLRISTASGDGRHYCYPHFTCAVDTENIRRVFNDCRDIIQRMHLRQYELL
binding result: binds
